Biological target: FGFR3 (UniProt P22607)
Test: phosphorylation enrichment, bacterial display (enrichment ratio); higher = better substrate or ligand; peptides without Tyr show the background
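Note: 11-residue human phosphosite peptides and single-mutation variants displayed on the E. coli surface, counted by deep sequencing, each peptide's frequency after selection divided by its frequency in the unselected input library; frequency after pTyr selection over input frequency; kinase dosed for 20-30% of maximal phosphorylation in three min.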

Sequence of FGFR3 (P22607 whole entry, looked up): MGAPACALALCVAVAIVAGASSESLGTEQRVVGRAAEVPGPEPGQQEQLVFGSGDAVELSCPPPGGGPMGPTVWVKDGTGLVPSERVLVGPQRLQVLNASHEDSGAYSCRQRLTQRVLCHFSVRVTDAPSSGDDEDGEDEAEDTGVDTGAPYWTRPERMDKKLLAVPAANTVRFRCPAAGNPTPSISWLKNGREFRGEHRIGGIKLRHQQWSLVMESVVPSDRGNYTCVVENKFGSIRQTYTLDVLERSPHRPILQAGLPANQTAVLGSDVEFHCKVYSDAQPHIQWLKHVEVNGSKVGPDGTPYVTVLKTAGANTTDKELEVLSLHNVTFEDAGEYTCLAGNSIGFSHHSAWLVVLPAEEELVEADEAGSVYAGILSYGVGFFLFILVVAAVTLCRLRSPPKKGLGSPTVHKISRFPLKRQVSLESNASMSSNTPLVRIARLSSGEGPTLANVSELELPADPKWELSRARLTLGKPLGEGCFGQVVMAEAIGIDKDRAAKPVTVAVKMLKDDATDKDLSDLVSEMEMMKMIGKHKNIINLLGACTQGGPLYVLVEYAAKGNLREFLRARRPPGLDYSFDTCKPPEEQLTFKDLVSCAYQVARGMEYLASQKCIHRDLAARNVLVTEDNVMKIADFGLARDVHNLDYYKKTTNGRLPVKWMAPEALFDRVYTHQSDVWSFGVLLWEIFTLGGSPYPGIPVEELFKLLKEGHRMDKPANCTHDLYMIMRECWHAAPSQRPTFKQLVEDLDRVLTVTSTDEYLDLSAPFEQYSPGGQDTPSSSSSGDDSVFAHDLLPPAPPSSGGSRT

Row | Sequence | phosphorylation enrichment
1 | SFLFRYADDSF [RAB3C_Y50] | 0.582
2 | RRIHSYRGHLC [VHL_Y112_W117C] | 0.733
3 | KASIMYPSNNC [CXCL11_Y52] | 0.49
4 | SVTCTYSPDLN [TP53_Y126_A129D] | 0.985
5 | QDIMAYRGREV [BCL6_Y157] | 0.717
6 | ALTDNYMFVVI [HAGH_Y61_L64V_YF] | 6.54
7 | PFIDSYEKDVA [PGM1_Y521_L516P_YF] | 0.636
8 | LSSISYVGCSL [ADGRD1_Y571] | 0.838
9 | VFFGSYSRPFG [NKAP_Y104_YF] | 0.65
10 | WSFNLYDINKD [KCNIP3_Y174_A170S] | 0.819
11 | ISISPYPAILH [IFT80_Y588_T586S] | 0.547
12 | ATHSGYRLNDY [CLDN14_Y233] | 0.491
13 | GGSTFYIDTNA [ACTL6A_Y69_P66S_YF] | 0.651
14 | LQEKSYIKGTS [LCTL_Y331] | 1.08
15 | QFLMKYVWSAS [ABCD1_Y337] | 0.759
16 | ECKLLYSQKEG [PTPN11_Y263_R265Q] | 0.705
17 | ADAGMYGVLPW [PLP1_Y207_R205G] | 0.529
18 | KKMKRYHVGKV [HARS2_Y151] | 0.486
19 | TNYSLYLRSLE [MTM1_Y71_R69S] | 0.659
20 | STEAIYWRFSK [SH3PXD2B_Y42_R43W_YF] | 1.13
21 | CNSFQYGGGGG [NPPA_Y151_R150Q] | 0.549
22 | NTFENYWPFFQ [GATM_Y103_K102N_YF] | 10.5
23 | ELPEKYSQNIF [PKP2_Y626_YF] | 0.659
24 | EVEPRYVVLFD [ERCC4_Y577_YF] | 0.973
25 | PEFVVYKPQME [CCRL2_Y170] | 1.08
26 | ALECLYRREKR [TEKT5_Y195_H196R] | 0.482
27 | VSTAVYKRFAS [BEST1_Y148_P152A] | 0.48
28 | GIVEDYRPPVF [ACVRL1_Y421_F425V_YF] | 0.51
29 | STEAIYRRYSK [SH3PXD2B_Y42] | 0.425

Tested on: Fer (mouse)
Test: as above

Row | Sequence | phosphorylation enrichment
30 | SFLFRYADDSF [RAB3C_Y50] | 0.414
31 | RRIHSYRGHLC [VHL_Y112_W117C] | 0.382
32 | KASIMYPSNNC [CXCL11_Y52] | 0.359
33 | SVTCTYSPDLN [TP53_Y126_A129D] | 0.629
34 | QDIMAYRGREV [BCL6_Y157] | 0.616
35 | ALTDNYMFVVI [HAGH_Y61_L64V_YF] | 5.63
36 | PFIDSYEKDVA [PGM1_Y521_L516P_YF] | 0.35
37 | LSSISYVGCSL [ADGRD1_Y571] | 0.445
38 | VFFGSYSRPFG [NKAP_Y104_YF] | 0.419
39 | WSFNLYDINKD [KCNIP3_Y174_A170S] | 1.01
40 | ISISPYPAILH [IFT80_Y588_T586S] | 0.418
41 | ATHSGYRLNDY [CLDN14_Y233] | 0.395
42 | GGSTFYIDTNA [ACTL6A_Y69_P66S_YF] | 0.475
43 | LQEKSYIKGTS [LCTL_Y331] | 0.96
44 | QFLMKYVWSAS [ABCD1_Y337] | 0.565
45 | ECKLLYSQKEG [PTPN11_Y263_R265Q] | 0.607
46 | ADAGMYGVLPW [PLP1_Y207_R205G] | 2.39
47 | KKMKRYHVGKV [HARS2_Y151] | 0.293
48 | TNYSLYLRSLE [MTM1_Y71_R69S] | 0.555
49 | STEAIYWRFSK [SH3PXD2B_Y42_R43W_YF] | 0.564
50 | CNSFQYGGGGG [NPPA_Y151_R150Q] | 0.512
51 | NTFENYWPFFQ [GATM_Y103_K102N_YF] | 0.894
52 | ELPEKYSQNIF [PKP2_Y626_YF] | 0.423
53 | EVEPRYVVLFD [ERCC4_Y577_YF] | 0.568
54 | PEFVVYKPQME [CCRL2_Y170] | 0.898
55 | ALECLYRREKR [TEKT5_Y195_H196R] | 0.435
56 | VSTAVYKRFAS [BEST1_Y148_P152A] | 0.398
57 | GIVEDYRPPVF [ACVRL1_Y421_F425V_YF] | 0.422
58 | STEAIYRRYSK [SH3PXD2B_Y42] | 0.341

Biological target: Fes (UniProt P07332)
Sequence (P07332 whole entry, looked up): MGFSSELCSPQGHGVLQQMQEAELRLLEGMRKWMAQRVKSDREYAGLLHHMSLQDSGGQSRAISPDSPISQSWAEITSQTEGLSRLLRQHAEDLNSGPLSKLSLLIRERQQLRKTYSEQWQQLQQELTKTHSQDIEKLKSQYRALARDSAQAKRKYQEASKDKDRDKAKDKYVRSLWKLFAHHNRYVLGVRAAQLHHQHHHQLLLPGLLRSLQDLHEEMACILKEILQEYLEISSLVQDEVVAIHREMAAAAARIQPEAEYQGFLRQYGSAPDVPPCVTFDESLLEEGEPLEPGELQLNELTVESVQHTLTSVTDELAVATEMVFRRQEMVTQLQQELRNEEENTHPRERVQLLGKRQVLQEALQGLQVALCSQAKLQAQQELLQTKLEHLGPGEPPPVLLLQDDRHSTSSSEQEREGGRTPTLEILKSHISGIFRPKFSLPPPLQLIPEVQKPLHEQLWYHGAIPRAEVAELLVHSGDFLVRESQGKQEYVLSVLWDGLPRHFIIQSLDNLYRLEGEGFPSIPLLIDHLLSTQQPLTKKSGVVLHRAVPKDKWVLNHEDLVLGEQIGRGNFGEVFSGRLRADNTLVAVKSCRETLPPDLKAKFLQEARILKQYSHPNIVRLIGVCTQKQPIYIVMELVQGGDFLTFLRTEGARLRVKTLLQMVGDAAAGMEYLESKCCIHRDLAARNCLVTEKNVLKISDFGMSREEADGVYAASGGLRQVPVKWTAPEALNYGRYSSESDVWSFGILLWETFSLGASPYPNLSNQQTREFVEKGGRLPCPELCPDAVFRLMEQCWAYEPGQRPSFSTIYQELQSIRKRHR
Test: as above

Row | Sequence | phosphorylation enrichment
59 | SFLFRYADDSF [RAB3C_Y50] | 1.01
60 | RRIHSYRGHLC [VHL_Y112_W117C] | 1.3
61 | KASIMYPSNNC [CXCL11_Y52] | 0.786
62 | SVTCTYSPDLN [TP53_Y126_A129D] | 1.71
63 | QDIMAYRGREV [BCL6_Y157] | 1.04
64 | ALTDNYMFVVI [HAGH_Y61_L64V_YF] | 1.61
65 | PFIDSYEKDVA [PGM1_Y521_L516P_YF] | 1.04
66 | LSSISYVGCSL [ADGRD1_Y571] | 1.01
67 | VFFGSYSRPFG [NKAP_Y104_YF] | 0.974
68 | WSFNLYDINKD [KCNIP3_Y174_A170S] | 1.45
69 | ISISPYPAILH [IFT80_Y588_T586S] | 0.961
70 | ATHSGYRLNDY [CLDN14_Y233] | 0.739
71 | GGSTFYIDTNA [ACTL6A_Y69_P66S_YF] | 0.987
72 | LQEKSYIKGTS [LCTL_Y331] | 1.21
73 | QFLMKYVWSAS [ABCD1_Y337] | 1.49
74 | ECKLLYSQKEG [PTPN11_Y263_R265Q] | 1.08
75 | ADAGMYGVLPW [PLP1_Y207_R205G] | 0.845
76 | KKMKRYHVGKV [HARS2_Y151] | 0.514
77 | TNYSLYLRSLE [MTM1_Y71_R69S] | 1.15
78 | STEAIYWRFSK [SH3PXD2B_Y42_R43W_YF] | 1.51
79 | CNSFQYGGGGG [NPPA_Y151_R150Q] | 0.919
80 | NTFENYWPFFQ [GATM_Y103_K102N_YF] | 1.18
81 | ELPEKYSQNIF [PKP2_Y626_YF] | 1.05
82 | EVEPRYVVLFD [ERCC4_Y577_YF] | 1.04
83 | PEFVVYKPQME [CCRL2_Y170] | 1.82
84 | ALECLYRREKR [TEKT5_Y195_H196R] | 1.85
85 | VSTAVYKRFAS [BEST1_Y148_P152A] | 0.77
86 | GIVEDYRPPVF [ACVRL1_Y421_F425V_YF] | 0.777
87 | STEAIYRRYSK [SH3PXD2B_Y42] | 0.418

Biological target: Fyn (UniProt P06241)
Sequence (P06241 whole entry, looked up): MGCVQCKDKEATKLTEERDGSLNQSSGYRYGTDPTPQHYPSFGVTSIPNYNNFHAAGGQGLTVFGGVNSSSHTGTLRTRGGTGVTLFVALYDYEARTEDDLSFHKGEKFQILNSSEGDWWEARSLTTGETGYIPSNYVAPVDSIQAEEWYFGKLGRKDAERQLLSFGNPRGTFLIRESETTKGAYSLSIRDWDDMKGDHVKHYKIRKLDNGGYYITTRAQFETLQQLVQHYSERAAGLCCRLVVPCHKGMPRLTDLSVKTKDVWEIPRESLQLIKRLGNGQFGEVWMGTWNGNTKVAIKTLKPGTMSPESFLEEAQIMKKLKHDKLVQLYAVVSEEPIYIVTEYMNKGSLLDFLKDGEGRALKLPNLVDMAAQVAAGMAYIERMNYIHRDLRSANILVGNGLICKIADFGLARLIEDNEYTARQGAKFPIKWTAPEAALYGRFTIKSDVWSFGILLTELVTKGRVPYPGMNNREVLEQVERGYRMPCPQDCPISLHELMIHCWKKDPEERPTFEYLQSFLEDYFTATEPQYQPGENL
Test: as above

Row | Sequence | phosphorylation enrichment
88 | SFLFRYADDSF [RAB3C_Y50] | 0.45
89 | RRIHSYRGHLC [VHL_Y112_W117C] | 0.531
90 | KASIMYPSNNC [CXCL11_Y52] | 0.446
91 | SVTCTYSPDLN [TP53_Y126_A129D] | 0.502
92 | QDIMAYRGREV [BCL6_Y157] | 0.632
93 | ALTDNYMFVVI [HAGH_Y61_L64V_YF] | 0.653
94 | PFIDSYEKDVA [PGM1_Y521_L516P_YF] | 0.656
95 | LSSISYVGCSL [ADGRD1_Y571] | 0.681
96 | VFFGSYSRPFG [NKAP_Y104_YF] | 0.382
97 | WSFNLYDINKD [KCNIP3_Y174_A170S] | 1.07
98 | ISISPYPAILH [IFT80_Y588_T586S] | 0.343
99 | ATHSGYRLNDY [CLDN14_Y233] | 0.389
100 | GGSTFYIDTNA [ACTL6A_Y69_P66S_YF] | 0.4
101 | LQEKSYIKGTS [LCTL_Y331] | 0.616
102 | QFLMKYVWSAS [ABCD1_Y337] | 0.3
103 | ECKLLYSQKEG [PTPN11_Y263_R265Q] | 0.489
104 | ADAGMYGVLPW [PLP1_Y207_R205G] | 9.65
105 | KKMKRYHVGKV [HARS2_Y151] | 0.349
106 | TNYSLYLRSLE [MTM1_Y71_R69S] | 0.423
107 | STEAIYWRFSK [SH3PXD2B_Y42_R43W_YF] | 3.69
108 | CNSFQYGGGGG [NPPA_Y151_R150Q] | 0.436
109 | NTFENYWPFFQ [GATM_Y103_K102N_YF] | 3.18
110 | ELPEKYSQNIF [PKP2_Y626_YF] | 0.413
111 | EVEPRYVVLFD [ERCC4_Y577_YF] | 0.547
112 | PEFVVYKPQME [CCRL2_Y170] | 0.814
113 | ALECLYRREKR [TEKT5_Y195_H196R] | 0.539
114 | VSTAVYKRFAS [BEST1_Y148_P152A] | 0.449
115 | GIVEDYRPPVF [ACVRL1_Y421_F425V_YF] | 0.455
116 | STEAIYRRYSK [SH3PXD2B_Y42] | 0.456

Source: the supplement of paper PMC10065799, “High-throughput profiling of sequence recognition by tyrosine kinases and SH2 domains using bacterial peptide display” (eLife, 2023)
